According to paper PMC3799435, “Dissecting the interactions of SERRATE with RNA and DICER-LIKE 1 in Arabidopsis microRNA precursor processing” (Nucleic Acids Research, 2013):

Columns and labels:
DCL1 = DCL1 (Arabidopsis thaliana, UniProt Q9SP32 1-1909); assay: SPR; 50 mM NaCl; SPR (Biacore T100): 20 mM Tris-HCl pH 7.0, 50 or 150 mM NaCl, 2 mM β-ME (0.005% P20 for SE variants); proteins 42-43 nM (Fig 2E), SE 20 nM (Fig 4), 16 nM DCL1 for complex; temperature not stated; conditions: protein: recombinant; tags: none (His6-StrepII-SUMOstar removed); chain copies: 3; label: 5'-biotin on strand 1; fork: 40 bp duplex; 20-nt 3' tail of strand 1 and 20-nt 5' tail of strand 2 unpaired; other end blunt
Sequence of DCL1 (Q9SP32 whole entry): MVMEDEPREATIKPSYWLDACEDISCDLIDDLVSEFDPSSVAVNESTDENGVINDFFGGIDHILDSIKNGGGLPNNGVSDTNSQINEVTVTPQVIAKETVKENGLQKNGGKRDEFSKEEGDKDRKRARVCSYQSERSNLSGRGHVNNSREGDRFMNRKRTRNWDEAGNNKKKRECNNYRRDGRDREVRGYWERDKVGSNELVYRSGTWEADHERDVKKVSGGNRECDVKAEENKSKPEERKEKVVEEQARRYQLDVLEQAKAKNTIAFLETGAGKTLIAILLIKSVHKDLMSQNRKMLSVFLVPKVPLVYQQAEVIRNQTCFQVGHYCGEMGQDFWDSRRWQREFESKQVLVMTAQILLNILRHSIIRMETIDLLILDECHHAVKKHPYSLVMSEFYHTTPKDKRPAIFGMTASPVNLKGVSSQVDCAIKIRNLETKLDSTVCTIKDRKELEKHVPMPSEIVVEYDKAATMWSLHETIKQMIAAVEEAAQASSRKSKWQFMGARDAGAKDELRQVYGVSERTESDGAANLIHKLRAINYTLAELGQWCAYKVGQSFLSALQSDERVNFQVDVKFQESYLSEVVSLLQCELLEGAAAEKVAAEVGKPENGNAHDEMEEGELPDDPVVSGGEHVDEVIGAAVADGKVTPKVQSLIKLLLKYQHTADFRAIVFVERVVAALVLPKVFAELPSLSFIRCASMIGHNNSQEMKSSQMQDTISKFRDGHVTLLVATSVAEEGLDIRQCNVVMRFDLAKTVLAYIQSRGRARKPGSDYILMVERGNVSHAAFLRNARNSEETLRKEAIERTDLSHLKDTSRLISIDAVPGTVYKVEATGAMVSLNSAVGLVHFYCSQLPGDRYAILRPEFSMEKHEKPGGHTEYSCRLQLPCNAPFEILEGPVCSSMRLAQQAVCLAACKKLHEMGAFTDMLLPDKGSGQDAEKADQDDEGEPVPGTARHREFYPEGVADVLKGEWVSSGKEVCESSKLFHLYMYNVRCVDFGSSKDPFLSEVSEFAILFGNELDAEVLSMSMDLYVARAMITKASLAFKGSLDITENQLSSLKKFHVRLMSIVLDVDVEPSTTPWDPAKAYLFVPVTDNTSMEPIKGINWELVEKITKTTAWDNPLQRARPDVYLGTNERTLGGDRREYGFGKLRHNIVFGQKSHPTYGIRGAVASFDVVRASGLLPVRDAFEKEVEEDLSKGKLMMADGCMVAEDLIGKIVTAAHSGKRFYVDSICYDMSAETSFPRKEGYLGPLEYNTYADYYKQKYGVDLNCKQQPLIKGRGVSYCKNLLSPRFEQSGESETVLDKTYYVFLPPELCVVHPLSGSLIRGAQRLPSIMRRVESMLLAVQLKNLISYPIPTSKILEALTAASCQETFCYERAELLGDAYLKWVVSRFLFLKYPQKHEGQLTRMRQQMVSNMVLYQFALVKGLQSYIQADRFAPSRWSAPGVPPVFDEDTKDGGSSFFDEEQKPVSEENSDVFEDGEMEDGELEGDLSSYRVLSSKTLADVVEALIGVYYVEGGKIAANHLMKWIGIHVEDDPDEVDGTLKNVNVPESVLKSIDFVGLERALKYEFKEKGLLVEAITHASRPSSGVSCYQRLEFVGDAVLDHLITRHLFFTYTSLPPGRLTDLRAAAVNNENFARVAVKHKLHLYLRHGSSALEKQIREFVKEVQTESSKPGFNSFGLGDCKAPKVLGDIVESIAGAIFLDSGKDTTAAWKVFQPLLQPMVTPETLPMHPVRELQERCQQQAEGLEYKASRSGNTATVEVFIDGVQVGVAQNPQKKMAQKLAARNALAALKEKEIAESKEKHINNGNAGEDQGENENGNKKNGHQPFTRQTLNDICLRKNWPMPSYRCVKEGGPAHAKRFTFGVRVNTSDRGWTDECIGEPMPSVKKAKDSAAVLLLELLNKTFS

SE (His-tagged) = target: T1, SE (His-tagged) (Arabidopsis thaliana, UniProt Q9ZVD0 1-720); assay: SPR; 50 mM NaCl, 20 nM protein; SPR (Biacore T100): 20 mM Tris-HCl pH 7.0, 50 or 150 mM NaCl, 2 mM β-ME (0.005% P20 for SE variants); proteins 42-43 nM (Fig 2E), SE 20 nM (Fig 4), 16 nM DCL1 for complex; temperature not stated; conditions: protein: recombinant; tags: N-terminal His6; vector also has inserted myc and Strep-tag II; label: 5'-biotin on strand 1; fork: 40 bp duplex; 20-nt 3' tail of strand 1 and 20-nt 5' tail of strand 2 unpaired; other end blunt
T1 sequence: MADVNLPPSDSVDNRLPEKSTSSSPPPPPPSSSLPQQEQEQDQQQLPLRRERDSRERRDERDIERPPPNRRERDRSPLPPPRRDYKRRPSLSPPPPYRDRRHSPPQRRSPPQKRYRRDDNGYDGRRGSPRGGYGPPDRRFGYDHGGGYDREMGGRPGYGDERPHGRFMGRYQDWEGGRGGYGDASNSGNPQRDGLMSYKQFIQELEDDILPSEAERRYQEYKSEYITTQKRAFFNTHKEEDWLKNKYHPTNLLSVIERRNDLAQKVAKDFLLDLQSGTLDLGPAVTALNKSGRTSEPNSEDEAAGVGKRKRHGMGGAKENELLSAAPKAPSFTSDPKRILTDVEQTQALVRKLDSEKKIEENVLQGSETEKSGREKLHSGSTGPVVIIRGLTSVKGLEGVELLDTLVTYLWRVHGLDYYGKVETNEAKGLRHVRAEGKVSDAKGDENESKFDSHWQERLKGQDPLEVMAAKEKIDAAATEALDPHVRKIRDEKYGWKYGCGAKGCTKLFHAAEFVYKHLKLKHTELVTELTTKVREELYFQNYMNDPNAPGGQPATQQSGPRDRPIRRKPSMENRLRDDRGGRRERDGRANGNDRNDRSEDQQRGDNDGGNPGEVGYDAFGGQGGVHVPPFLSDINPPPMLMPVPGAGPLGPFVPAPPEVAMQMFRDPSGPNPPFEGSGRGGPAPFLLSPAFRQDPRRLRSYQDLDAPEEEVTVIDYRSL

SE143-720 = target: T2, SE143-720 (Arabidopsis thaliana, UniProt Q9ZVD0 143-720, del1-142); assay: as above; conditions: protein: recombinant; tags: N-terminal His6; vector also has inserted myc and Strep-tag II; label: 5'-biotin on strand 1; fork: 40 bp duplex; 20-nt 3' tail of strand 1 and 20-nt 5' tail of strand 2 unpaired; other end blunt
T2 sequence: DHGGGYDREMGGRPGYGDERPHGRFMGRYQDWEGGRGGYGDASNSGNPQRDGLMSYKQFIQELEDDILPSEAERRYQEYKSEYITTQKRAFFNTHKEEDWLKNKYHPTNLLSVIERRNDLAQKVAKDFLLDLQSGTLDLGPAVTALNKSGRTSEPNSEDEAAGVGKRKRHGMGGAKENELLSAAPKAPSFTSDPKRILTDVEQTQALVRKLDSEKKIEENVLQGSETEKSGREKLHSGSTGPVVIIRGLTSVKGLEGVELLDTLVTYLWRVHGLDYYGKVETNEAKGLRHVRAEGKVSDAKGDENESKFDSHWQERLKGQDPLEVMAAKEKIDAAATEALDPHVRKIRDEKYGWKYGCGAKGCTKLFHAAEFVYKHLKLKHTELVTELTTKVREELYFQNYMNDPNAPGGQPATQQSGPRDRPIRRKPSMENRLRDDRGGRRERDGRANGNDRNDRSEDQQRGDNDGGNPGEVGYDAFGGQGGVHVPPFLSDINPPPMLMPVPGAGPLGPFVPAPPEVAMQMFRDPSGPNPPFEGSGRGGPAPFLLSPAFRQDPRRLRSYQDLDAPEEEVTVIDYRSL

SE (untagged) = target: T3, SE (untagged) (Arabidopsis thaliana, UniProt Q9ZVD0 1-720); assay: SPR; 50 mM NaCl; weaker than DCL1, rapid dissociation; SPR (Biacore T100): 20 mM Tris-HCl pH 7.0, 50 or 150 mM NaCl, 2 mM β-ME (0.005% P20 for SE variants); proteins 42-43 nM (Fig 2E), SE 20 nM (Fig 4), 16 nM DCL1 for complex; temperature not stated; conditions: protein: recombinant; tags: none (His6-StrepII-SUMOstar removed); label: 5'-biotin on strand 1; fork: 40 bp duplex; 20-nt 3' tail of strand 1 and 20-nt 5' tail of strand 2 unpaired; other end blunt
T3 sequence: T1 sequence

DCL1;SE (His-tagged) = DCL1;SE (His-tagged) (Arabidopsis thaliana;Arabidopsis …, UniProt Q9SP32;Q9ZVD0 1-1909;1-720, |); assay: SPR; SE injected on preformed DCL1/RNA complex, 50 mM NaCl; SE:DCL1 2.4:1; SPR (Biacore T100): 20 mM Tris-HCl pH 7.0, 50 or 150 mM NaCl, 2 mM β-ME (0.005% P20 for SE variants); proteins 42-43 nM (Fig 2E), SE 20 nM (Fig 4), 16 nM DCL1 for complex; temperature not stated; conditions: protein: recombinant;recombinant; tags: none (His6-StrepII-SUMOstar removed);N-terminal His6; vector also has inserted myc and Strep-tag II; label: 5'-biotin on strand 1; fork: 40 bp duplex; 20-nt 3' tail of strand 1 and 20-nt 5' tail of strand 2 unpaired; other end blunt
Sequence of DCL1;SE (His-tagged) (Q9SP32 whole entry, one chain of several): as the sequence (Q9SP32 whole entry) above

DCL1;SE1-701 = DCL1;SE1-701 (Arabidopsis thaliana;Arabidopsis …, UniProt Q9SP32;Q9ZVD0 1-1909;1-701, |del702-720); assay: SPR; SE1-701 injected on preformed DCL1/RNA complex, 50 mM NaCl; as wild-type SE; SPR (Biacore T100): 20 mM Tris-HCl pH 7.0, 50 or 150 mM NaCl, 2 mM β-ME (0.005% P20 for SE variants); proteins 42-43 nM (Fig 2E), SE 20 nM (Fig 4), 16 nM DCL1 for complex; temperature not stated; conditions: protein: recombinant;recombinant; tags: none (His6-StrepII-SUMOstar removed);N-terminal His6; vector also has inserted myc and Strep-tag II; label: 5'-biotin on strand 1; fork: 40 bp duplex; 20-nt 3' tail of strand 1 and 20-nt 5' tail of strand 2 unpaired; other end blunt
Sequence of DCL1;SE1-701 (Q9SP32 whole entry, stated change not applied, one chain of several): as the sequence (Q9SP32 whole entry) above

B1: forked-RNA (dsRNA)
RNA 1: CAACCCAAGAUAGAUCAUGCAGGCAGCUUCAUCAGAUGCCGCUCCCUCUUUUUUUCUCUA
RNA 2: GCUCCCUCUUUUUUUCUCUAGGCAUCUGAUGAAGCUGCCUGCAUGAUCUAUCUUGGGUUG
DCL1
  binding result: binds
SE (His-tagged)
  binding result: binds
SE143-720
  binding signal: 6 fold reduction vs wild-type SE
SE (untagged)
  binding result: binds
DCL1;SE (His-tagged)
  binding result: binds
DCL1;SE1-701
  binding result: binds
